B1: Alpha-lactalbumin, P00712 (parent)
chain: MMSFVSLLLVGILFHATQAEQLTKCEVFQKLKDLKDYGGVSLPEWVCTAFHTSGYDTQAIVQNNDSTEYGLFQINNKIWCKDDQNPHSRNICNISCDKFLDDDLTDDIVCAKKILDKVGINYWLAHKALCSEKLDQWLCEKL

Where “and” joins values, the source holds several entries; their conditions need not be identical. Equal values may be shown once.

The series covers variants of B1. To be noted: Capra hircus, pH 7, 25 °C, GdnHCl, CD, sodium cacodylate 50 mM, NaCl 50 mM, structure 1HFY, whole UniProt chain shown.

For MMSFVSLLLVGILFHATQAEQLTKCEVFQKLKDLKDYGGVSLPEWVCTAFHTSGYDTQAIVQNNDSTEYGAFQINNKIWCKDDQNPHSRNICNISCDKFLDDDLTDDIVCAKKILDKVGINYWLAHKALCSEKLDQWLCEKL [L71A], the denaturant m value amounted to 2.03 kcal/mol/M, the “denaturant midpoint (higher = more stable)” value (“denaturant midpoint” below) worked out at 1.15 M and the unfolding free energy is 2.34 kcal/mol. Besides, for the setting “transition: 3”, the denaturant m value was 1.52 kcal/mol/M and 0.51 kcal/mol/M; the “denaturant midpoint” value is 1.16 M and 1.13 M.
In the case of MMSFVSLLLVGILFHATQAEQLTKCEVFQKLKDLKDYGGVSLPEWVCTAFHTSGYDTQAIVQNNDSTEYGLFQINNKIWCKDDQNPHSRNICNISCDKFLDDDLTDDVVCAKKILDKVGINYWLAHKALCSEKLDQWLCEKL [I108V], the denaturant m value was 1.95 kcal/mol/M, the “denaturant midpoint” value is 2.33 M and the unfolding free energy is 4.54 kcal/mol. In addition, under “transition: 3”, the denaturant m value was 1.3 kcal/mol/M and 0.65 kcal/mol/M; the “denaturant midpoint” value is 2.95 M and 1.09 M.
As for MMSFVSLLLVGILFHATQAEQLTKCEAFQKLKDLKDYGGVSLPEWVCTAFHTSGYDTQAIVQNNDSTEYGLFQINNKIWCKDDQNPHSRNICNISCDKFLDDDLTDDIVCAKKILDKVGINYWLAHKALCSEKLDQWLCEKL [V27A], the denaturant m value came out at 2.1 kcal/mol/M, the “denaturant midpoint” value is 2.26 M and the unfolding free energy turned out to be 4.74 kcal/mol. Where the note is “transition: 3”, the denaturant m value was determined as 1.48 kcal/mol/M, the “denaturant midpoint” value amounted to 2.76 M and the unfolding free energy worked out at 4.1 kcal/mol.
Take MMSFVSLLLVGILFHATQAEQLTKCEVFQKLKDLKDYGGVSLPEWVCTAFHTSGYDTQAIVQNNDSTEYGLFQINNKIWCKDDQNPHSRNICNISCDKFLDDDLTDDIVCAKKILDKVGINYWLAHKAACSEKLDQWLCEKL [L129A]: the denaturant m value is 2.29 kcal/mol/M, the “denaturant midpoint” value was determined as 2.38 M and the unfolding free energy amounted to 5.45 kcal/mol. Besides, where the note is “transition: 3”, the denaturant m value was 1.69 kcal/mol/M and 0.6 kcal/mol/M.
On to MMSFVSLLLVGILFHATQAEQLTKCEVFQKLKDLKDYGGVSLPEWVCTAFHTSGYDTQAIVQNNDSTEYGLFQINNKIWCKDDQNPHSRNICNISCDKFLDDDLTDDIVCAKKILDKVGINYWLAHKALCSEKLDQFLCEKL [W137F], for which the denaturant m value is 2.12 kcal/mol/M, the “denaturant midpoint” value was 2.49 M and the unfolding free energy turned out to be 5.27 kcal/mol.
For the variant MMSFVSLLLVGILFHATQAEQLTKCEVFQKLKDLKDYGGVSLPEWVCTAFHTSGYDTQAIVQNNDSTEYGLFQINNKIWCKDDQNPHSRNICNISCDKFLDDDLTNDIVCAKKILDKVGINYWLAHKALCSEKLDQWLCEKL [D106N], the denaturant m value stood at 2.18 kcal/mol/M, the “denaturant midpoint” value worked out at 2.07 M and the unfolding free energy turned out to be 4.51 kcal/mol. Moreover, where the note is “transition: 3”, the denaturant m value was 0.72 kcal/mol/M, the “denaturant midpoint” value turned out to be 1.49 M and the unfolding free energy was 1.08 kcal/mol.
For the variant MMSFVSLLLVGILFHATQAEQLTKCEVFQKAKDLKDYGGVSLPEWVCTAFHTSGYDTQAIVQNNDSTEYGLFQINNKIWCKDDQNPHSRNICNISCDKFLDDDLTDDIVCAKKILDKVGINYWLAHKALCSEKLDQWLCEKL [L31A], the denaturant m value worked out at 2.6 kcal/mol/M, the “denaturant midpoint” value worked out at 1.21 M and the unfolding free energy amounted to 3.17 kcal/mol. Besides, the “denaturant midpoint” value (transition: 3) was 1.37 M and 0.62 M.
As for MMSFVSLLLVGILFHATQAEQLTKCEVFQKLKDLKDYGGVSLPEWACTAFHTSGYDTQAIVQNNDSTEYGLFQINNKIWCKDDQNPHSRNICNISCDKFLDDDLTDDIVCAKKILDKVGINYWLAHKALCSEKLDQWLCEKL [V46A], the denaturant m value worked out at 2.7 kcal/mol/M, the “denaturant midpoint” value was found to be 1.81 M and the unfolding free energy came out at 4.88 kcal/mol. For the setting “transition: 3”, the denaturant m value is 1.9 kcal/mol/M and 0.8 kcal/mol/M; the “denaturant midpoint” value is 2.17 M and 0.94 M.
MMSFVSLLLVGILFHATQAEQLTKCEVFQKLKDLKDYGGVSLPEWVCTAFHTSGYDTQAIVQNNDSTEYGLFQINNKIWCKDDQNPHSRNICNISCDKFLDDDLTDDIVCAKKIADKVGINYWLAHKALCSEKLDQWLCEKL [L115A]: the denaturant m value was determined as 1.72 kcal/mol/M, the “denaturant midpoint” value was 2 M and the unfolding free energy was determined as 3.44 kcal/mol. Under “transition: 3”, the denaturant m value was 1.09 kcal/mol/M and 0.63 kcal/mol/M.
MMSFVSLLLVGILFHATQAEQLTKCEVFQKLKDLKDYGGVSLPEWVCTAFHTSGYDTQAIVQNNDSTEYGLFQINNKIACKDDQNPHSRNICNISCDKFLDDDLTDDIVCAKKILDKVGINYWLAHKALCSEKLDQWLCEKL [W79A]: the denaturant m value was determined as 2.4 kcal/mol/M, the “denaturant midpoint” value amounted to 1.59 M and the unfolding free energy worked out at 3.82 kcal/mol. Besides, where the note is “transition: 3”, the denaturant m value was 1.79 kcal/mol/M and 0.61 kcal/mol/M; the “denaturant midpoint” value was 1.58 M and 1.65 M; the unfolding free energy is 2.82 kcal/mol and 1 kcal/mol.
As for MMSFVSLLLVGILFHATQAEQLTKCEVFQKLKDLKDYGGVSLPEWVCTAFHTSGYDTQAIVQNNDSTEYGLFQINNKIWCKDDQNPHSRNICNISCDKFLDDDLTDDIVCAAKILDKVGINYWLAHKALCSEKLDQWLCEKL [K112A], the denaturant m value was 2.12 kcal/mol/M, the “denaturant midpoint” value turned out to be 1.83 M and the unfolding free energy amounted to 3.88 kcal/mol. Moreover, under “transition: 3”, the denaturant m value is 1.51 kcal/mol/M and 0.61 kcal/mol/M; the “denaturant midpoint” value is 2.07 M and 1.24 M.
As to MMSFVSLLLVGILFHATQAEQLTKCEVFQKLKDLKDYGGVSLPEWVCTAFHTSGYDTQAIVQNNDSTEYGLFQINNKIWCKDDQNPHSRNICNISCDKFLDDDLTDDIVCAKKVLDKVGINYWLAHKALCSEKLDQWLCEKL [I114V], the denaturant m value was 1.92 kcal/mol/M, the “denaturant midpoint” value worked out at 1.92 M and the unfolding free energy is 3.69 kcal/mol. Also, for the setting “transition: 3”, the denaturant m value was 1.21 kcal/mol/M and 0.71 kcal/mol/M; the “denaturant midpoint” value is 2.46 M and 1 M.
For MMSFVSLLLVGILFHATQAEQLTKCEVFQKLKDLKDYGGVSLPEWVCTAFHTSGYDTQAIVQNNDSTEYGLFQINNKIWCKDDQNPHSRNICNISCDKFLDDDLTDDIVCAKKILDKVGINYWAAHKALCSEKLDQWLCEKL [L124A], for the setting “transition: 3”, the denaturant m value is 2 kcal/mol/M and 0.74 kcal/mol/M; the “denaturant midpoint” value is 2.55 M and 1.22 M.
Take MMSFVSLLLVGILFHATQAEQLTKCEVFQKLKDLKDYGGVSLPEWVCTAFHTSGYDTQAIVQNNDSTEYGLFQINNKIWCKDDQNPHSRNICNISCDKFLDDDLTDDIACAKKILDKVGINYWLAHKALCSEKLDQWLCEKL [V109A]: the denaturant m value came to 2.22 kcal/mol/M, the “denaturant midpoint” value was 2.99 M and the unfolding free energy was determined as 6.63 kcal/mol. Where the note is “transition: 3”, the denaturant m value was 1.64 kcal/mol/M and 0.58 kcal/mol/M; the “denaturant midpoint” value was 3.5 M and 1.54 M.
Turning to MMSFVSLLLVGILFHATQAEQLTKCEVFQKLKDLKDYGGVSLPEWVCTAFHTSGYDTQAIVQNNDSTEYGLFQINNKIWCKDDQNPHSRNICNISCDKFLDDDLTDDIVCAKKILDKVGINFWLAHKALCSEKLDQWLCEKL [Y122F], the denaturant m value was determined as 1.82 kcal/mol/M, the “denaturant midpoint” value was 1.76 M and the unfolding free energy is 3.2 kcal/mol. Further, for the setting “transition: 3”, the denaturant m value was 1.3 kcal/mol/M and 0.52 kcal/mol/M; the “denaturant midpoint” value was 1.64 M and 2.07 M; the unfolding free energy is 2.13 kcal/mol and 1.08 kcal/mol.
On to MMSFVSLLLVGILFHATQAEQLTKCEVFQKLKDLKDYGGVSLPEWVCTAFHTSGYDTQAIVQNNDSTEYGLFQVNNKIWCKDDQNPHSRNICNISCDKFLDDDLTDDIVCAKKILDKVGINYWLAHKALCSEKLDQWLCEKL [I74V], for which, where the note is “transition: 3”, the denaturant m value was 0.62 kcal/mol/M and 0.75 kcal/mol/M; the “denaturant midpoint” value is 2.38 M and 1.04 M; the unfolding free energy is 1.48 kcal/mol and 0.78 kcal/mol.

The values are drawn from FireProtDB (doi:10.1016/j.jmb.2004.06.010).
